Source: patent publication US20230128688A1 (published 2023)

Experiments:
[1] = molecular target: T1, CD20 (UniProt P11836 1-297, limits assumed); test: Octet bio-layer interferometry, Protein A biosensors
T1 construct: Used in the Octet assay with Protein A biosensors
T1 sequence (looked up): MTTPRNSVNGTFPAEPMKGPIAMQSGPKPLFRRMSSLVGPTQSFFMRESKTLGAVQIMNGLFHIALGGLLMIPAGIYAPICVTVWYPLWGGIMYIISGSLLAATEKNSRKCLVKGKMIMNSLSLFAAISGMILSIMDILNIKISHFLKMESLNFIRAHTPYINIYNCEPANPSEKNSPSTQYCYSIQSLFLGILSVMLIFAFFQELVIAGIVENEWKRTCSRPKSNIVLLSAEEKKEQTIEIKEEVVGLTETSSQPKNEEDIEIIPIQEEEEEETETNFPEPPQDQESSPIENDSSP

[2] = molecular target: T1, CD20; test: Octet bio-layer interferometry, Protein A biosensors, 1:1 global fit

B1: III-1 (CD20×CD3; rituximab×SP34 scFv) (bispecific antibody)
chain 1: QVQLQQPGAELVKPGASVKMSCKASGYTFTSYNMHWVKQTPGRGLEWIGAIYPGNGDTSYNQKFKGKATLTADKSSSTAYMQLSSLTSEDSAVYYCARSTYYGGDWYFNVWGAGTTVTVSA
chain 2: QIVLSQSPAILSASPGEKVTMTCRASSSVSYIHWFQQKPGSSPKPWIYATSNLASGVPVRFSGSGSGTSYSLTISRVEAEDAATYYCQQWTSNPPTFGGGTKLEIK
chain 3: EVQLVESGGGLVQPGGSLKLSCAASGFTFNTYAMNWVRQAPGKGLEWVGRIRSKYNNYATYYADSVKGRFTISRDDSKNTLYLQMNSLRAEDTAVYYCVRHGNFGNSYVSWFAYWGQGTLVTVSSGGGGSGGGGSGGGGSQAVVTQEPSLTVSPGGTVTLTCGSSTGAVTTSNYANWVQQKPGQAPRGLIGGTNKRAPGVPARFSGSLLGGKAALTLSGAQPEDEAEYYCALWYSNLWVFGGGTKLTVLGSEQKLISEEDLGSGGGGSLPET
modifications: C-terminal LPETG sortase tag joined through the (G)5-PEG linker from I-53 to a lysine of rituximab
Question: B1 was tested. Which Kd [1] did it give?
Answer: 0.75 nM

Question: And the Kd [2]?
Answer: 1.06 nM
